Article PMC4188581 (2014)

Molecular target: CDK2 (Homo sapiens, UniProt P24941)
Assay: SPR

B1: LAALS peptide (peptide)
chain: LAALS
modifications: 60 uM ATP
With B1 the Kd was 61 µM.
